Residue numbers refer to the chain shown, from its start. Names may count otherwise.
T1: murine PD-1 (murine, UniProt Q02242 25-167, limits assumed)
T1 construct: also called mouse PD-1
T1 sequence (looked up): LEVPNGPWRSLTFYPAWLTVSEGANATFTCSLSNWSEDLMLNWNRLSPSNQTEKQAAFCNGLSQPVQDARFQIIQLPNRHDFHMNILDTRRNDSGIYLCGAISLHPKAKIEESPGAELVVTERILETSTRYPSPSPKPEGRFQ

B1: chimeric Fab (Fab, V domains shown)
VH: EVQLVESGGDLVKPGGSLKLSCAASGFVFSRYDMAWVRQTPEKRLEWVAFISGGGSNTYYPDTVKGRFTISRDNAKNTLYLQMTSLKSEDTAVYYCISPYYYAMEYWGQGTSVTVSS
VL: DIVMTQSHKFISTSVGDRVSITCKASQDVDTAVAWYQQKPGQSPKLLIHWASTRHTGVPDRFTGGGSGTDFTLTLSNVQSEDLADYFCQQYSTFPWTFGGGTRLEIK
notes: Crude murine-human chimeric Fab from E. coli TG1, made with the HCVR and LCVR of PD1#3; Only the variable domains are tied to it
B2: PD1#3 (antibody, V domains shown)
VH: B1 VH
VL: B1 VL
notes: Murine hybridoma mAb purified on Protein A; also called mAb PD1#3
B3: PD1#4 (antibody, V domains shown)
VH: EVRLVESGGGLVKPGGSLKVSCVASGFTFSRYGMSWVRQTPEKRLEWVATISGGGRDTYYPDSVKGRFTISRDNAKNNLYLQMSSLRSEDTALYYCVRQEDIVWFAYWGQGTLVTVSA
VL: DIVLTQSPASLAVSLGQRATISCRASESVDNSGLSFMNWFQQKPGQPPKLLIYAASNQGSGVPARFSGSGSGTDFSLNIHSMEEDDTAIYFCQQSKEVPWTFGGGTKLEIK
notes: Murine hybridoma mAb purified on Protein A; also called mAb PD1#4
B4: PD1#1 (antibody, V domains shown)
VH: QVQLQQPGAELVMPGASVKMSCKASGYTITDCWMHWVKQRPGQGLEWIGAIDTSNSYTTYNQKFKGKATLTVDESSSTAYMQFNSLTSDDSAVYFCAISLQRPFDYWGQGTTLTVSS
VL: DIQMTQSPASLSASVGENVTITCRASENVYSYLAWYQQKEGKSPQLLVYNAKTLTGGVPSRFSGSGSGTQFSLRISSLQPEDFGSYYCLQHYGYPFTFGSGTKLEKK
notes: Murine hybridoma mAb purified on Protein A; also called mAb PD1#1
B5: AS05616 (Fab, V domains shown)
VH: EVQLVESGGGLVQPGGSLRLSCAASGFVFSRYDMAWVRQTPGKGLEWVSFISGGGSNTYYPDTVKGRFTISRDNSKNTLYLQMNSLRAEDTAVYYCISPYYYAMEYWGQGTTVTVSS
VL: DIQMTQSPSSISTSVGDRVTITCKASQDVDTAVAWYQQKPGKSPKLLIHWASTRHTGVPSRFSGSGSGTDFTLTISSLQPEDFADYFCQQYSTFPWTFGGGTKVEIK
notes: Humanized Fab-SASA clone from the phage library
B6: PD1-BM Ab (Fab) (Fab, V domains shown)
VH: B5 VH with S49A
VL: B5 VL with I75L, L78V, F83L, V104L
notes: Humanized Fab with all 14 back mutations; also called PD1-BM Fab
B7: AS05617 (IgG) (antibody, V domains shown)
VH: B5 VH
VL: DIQMTQSPSSISTSVGDRVTITCKASQDVDTAVAWYQQKPGKSPKLLIYWASTRHTGVPSRFSGSGSGTDFTLTISSLQPEDFADYFCQQYSTFPWTFGGGTKVEIKR
notes: Full-length humanized IgG from HEK293 cells
B8: Fab 3 (Fab, V domains shown)
VH: B5 VH with S49A, I97A
VL: B5 VL with I75L, L78V, F83L, V104L
notes: Crude Fab from E. coli; also called PD1-BM VH-I97A
B9: Fab 8 (Fab, V domains shown)
VH: B5 VH with S49A
VL: B5 VL with H49Y, I75L, L78V, F83L, V104L
notes: Crude Fab from E. coli; also called PD1-BM VL-H49Y
B10: AS05614 (Fab, V domains shown)
VH: B5 VH
VL: B5 VL with I75L, L78V, D85T
notes: as for B5
B11: Fab 1 (Fab, V domains shown)
VH: B5 VH with T40A, S49A
VL: B5 VL with I75L, L78V, F83L, V104L
notes: Crude Fab from E. coli; also called PD1-BM VH-T40A
B12: PD1-BM-min (IgG) (antibody, V domains shown)
VH: B5 VH with T40A
VL: B7 VL with I11V, T13A, S43A, D85T, F87Y
notes: as for B7
B13: Fab 10 (Fab, V domains shown)
VH: B5 VH with S49A
VL: B5 VL with I75L, F83L, V104L
notes: Crude Fab from E. coli; also called PD1-BM VL-V78L
B14: Fab 11 (Fab, V domains shown)
VH: B5 VH with S49A
VL: B5 VL with I75L, L78V, V104L
notes: Crude Fab from E. coli; also called PD1-BM VL-L83F
B15: AS05617 (Fab) (Fab, V domains shown)
VH: B5 VH
VL: B5 VL with H49Y
notes: as for B5
B16: Fab 6 (Fab, V domains shown)
VH: B5 VH with S49A
VL: B5 VL with T13A, I75L, L78V, F83L, V104L
notes: Crude Fab from E. coli; also called PD1-BM VL-T13A
B17: Fab 14 (Fab, V domains shown)
VH: B5 VH with S49A
VL: B5 VL with I75L, L78V, F83L
notes: Crude Fab from E. coli; also called PD1-BM VL-L104V
B18: Fab 13 (Fab, V domains shown)
VH: B5 VH with S49A
VL: B5 VL with I75L, L78V, F83L, F87Y, V104L
notes: Crude Fab from E. coli; also called PD1-BM VL-F87Y
B19: Fab 7 (Fab, V domains shown)
VH: B5 VH with S49A
VL: B5 VL with S43A, I75L, L78V, F83L, V104L
notes: Crude Fab from E. coli; also called PD1-BM VL-S43A
B20: AS05618 (Fab, V domains shown)
VH: B5 VH
VL: B5 VL with V104L
notes: as for B5
B21: Fab 9 (Fab, V domains shown)
VH: B5 VH with S49A
VL: B5 VL with L78V, F83L, V104L
notes: Crude Fab from E. coli; also called PD1-BM VL-L75I
B22: PD1-BM Ab (IgG) (antibody, V domains shown)
VH: B5 VH with S49A
VL: B7 VL with Y49H, I75L, L78V, F83L, V104L
notes: as for B7
B23: PD1-BM-min Ab (Fab) (Fab, V domains shown)
VH: B5 VH with T40A
VL: B5 VL with I11V, T13A, S43A, H49Y, D85T, F87Y
notes: Humanized Fab with only the VH A97I and K98S back mutations; also called PD1-Grafted VH-A97I & K98S
B24: Fab 5 (Fab, V domains shown)
VH: B5 VH with S49A
VL: B5 VL with I11V, I75L, L78V, F83L, V104L
notes: Crude Fab from E. coli; also called PD1-BM VL-I11V
B25: Fab 12 (Fab, V domains shown)
VH: B5 VH with S49A
VL: B5 VL with I75L, L78V, F83L, D85T, V104L
notes: Crude Fab from E. coli; also called PD1-BM VL-D85T

Assays:
human PD-1 [1] = biological target: T2, human PD-1 (human, UniProt Q15116 25-167); assay: SPR, multiple-cycle, crude Fab from E. coli; antigen form not stated
T2 construct: The immunogen was PD1/Fc (Leu25-Gln167 fused to human IgG1 Pro100-Lys330); also called huPD-1; hPD-1
T2 sequence (Q15116 25-167 limits assumed): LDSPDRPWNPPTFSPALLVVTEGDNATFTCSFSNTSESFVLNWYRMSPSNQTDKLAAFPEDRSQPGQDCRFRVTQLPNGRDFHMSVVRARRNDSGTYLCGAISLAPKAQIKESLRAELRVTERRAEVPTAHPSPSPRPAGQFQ
From the text: A homology model of mouse anti-PD1 Fv was built wherein putative back mutation sites (i.e., buried residues of the frameworks that are different in the mouse and human acceptor sequences) were identified. There were a total of 14 putative back mutation sites. A variant humanized Fab comprising all 14 of the putative back mutation sites of PD1-grafted Ab mutated back to their mouse counterparts (hereinafter identified as “PD1-BM Ab”) comprising the heavy chain variable region sequence set forth in SEQ ID NO: 38 and the light chain variable region sequence set forth in SEQ ID NO: 39, was synthesized. In addition, 14 variants of PD1-BM Ab (hereinafter identified as Fabs 1-14), each having at least one of the putative 14 back mutation sites in PD1-BM Ab mutated back to the human counterpart, were synthesized. These constructs were used to transform E. coli TG1 strain. Single colonies were pick for each individual construct and grown in E. coli medium. Crude chimeric and humanized Fabs were collected and subjected to multiple-cycle affinity estimation by Surface Plasmon Resonance (SPR).

murine PD-1 = biological target: T1, murine PD-1; assay: murine PD-1 binding ELISA
[2] = biological target: T3, His-tagged human PD-1 protein (human, UniProt Q15116 25-170, limits assumed); assay: SPR; Fab-SASA captured on immobilised BSA, his-tagged PD-1 as analyte
T3 construct: SPR analyte; also called his-tagged antigen PD-1; not shown: His tag
T3 sequence (Q15116 25-170 limits assumed): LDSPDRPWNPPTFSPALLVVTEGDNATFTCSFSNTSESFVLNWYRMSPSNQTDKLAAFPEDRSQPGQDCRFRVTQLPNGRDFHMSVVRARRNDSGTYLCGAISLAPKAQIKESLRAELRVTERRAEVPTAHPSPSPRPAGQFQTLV
Procedure: For affinity ranking, BSA was immobilized onto the sensor chip using amine coupling method. The selected Fab-SASA secreted to the culture medium was injected and captured by BSA through the tight binding between BSA and SASA (capture phase). After equilibration, his-tagged antigen PD-1 was injected for 300 seconds (association phase) followed by the injection of running buffer for 900 seconds (dissociation phase). The surface was regenerated before the injection of another three Fab-SASA clones. The process was repeated until all selected Fab-SASA proteins were analyzed. Responses of reference flow cell were subtracted from those of Fab-SASA flow cells during each cycle. The antibodies were ranked by their dissociation rate constants (off-rates, […]). […]

[3] = biological target: T3, His-tagged human PD-1 protein; assay: SPR (Biacore T200); IgG captured by anti-human Fc gamma, His-tagged human PD-1 as analyte, 1:1 model
Procedure: The binding affinity of the purified IgGs to human PD-1 protein were determined using a Surface Plasmon Resonance (SPR) biosensor, Biacore T200 (GE Healthcare). Antibodies were captured on the sensor chip pre-coated with anti-human Fc gamma. His-tagged human PD-1 protein was used as analyte. The data of dissociation (kd) and association (kₐ) rate constants were obtained using Biacore T200 evaluation software. The equilibrium dissociation constants (KD) were calculated from the ratio of kd over kₐ. Binding data for each antibody was processed and fitted to 1:1 interaction model using Biacore T200 evaluation software. All experimental data could be well fitted to the model.

human PD-1 [4] = biological target: T2, human PD-1; assay: SPR; antigen form not stated

| Binder | Kd (human PD-1 [1]) [nM] | koff (human PD-1 [1]) [s⁻¹] | kon (human PD-1 [1]) [M⁻¹ s⁻¹] | other results |
| --- | --- | --- | --- | --- |
| B1 | 0.5 | 0.00015 | 300000 |  |
| B2 |  |  |  | binding result (murine PD-1): no binding |
| B3 |  |  |  | binding result (murine PD-1): no binding |
| B4 |  |  |  | binding result (murine PD-1): no binding |
| B5 |  |  |  | Kd [2]: 0.311 nM; koff [2]: 0.000105 s⁻¹; kon [2]: 336000 M⁻¹ s⁻¹ |
| B6 | 0.15 | 5.5e-05 | 360000 | Kd [2]: 0.0564 nM; koff [2]: 1.78e-05 s⁻¹; kon [2]: 315000 M⁻¹ s⁻¹ |
| B7 |  |  |  | Kd [3]: 1 nM; koff [3]: 0.000183 s⁻¹; kon [3]: 183000 M⁻¹ s⁻¹ |
| B8 | 1.1 | 0.00035 | 320000 |  |
| B9 | 0.57 | 0.00019 | 340000 |  |
| B10 |  |  |  | Kd [2]: 0.37 nM; koff [2]: 0.000134 s⁻¹; kon [2]: 363000 M⁻¹ s⁻¹ |
| B11 | 0.32 | 9.8e-05 | 310000 |  |
| B12 |  |  |  | Kd [3]: 0.943 nM; koff [3]: 0.000263 s⁻¹; kon [3]: 279000 M⁻¹ s⁻¹ |
| B13 | 0.29 | 9.1e-05 | 320000 |  |
| B14 | 0.72 | 0.00022 | 300000 |  |
| B15 |  |  |  | Kd [2]: 0.0854 nM; koff [2]: 3e-05 s⁻¹; kon [2]: 351000 M⁻¹ s⁻¹ |
| B16 | 0.25 | 9.6e-05 | 380000 |  |
| B17 | 0.68 | 0.0002 | 300000 |  |
| B18 | 0.29 | 0.0001 | 350000 |  |
| B19 | 0.59 | 0.00016 | 270000 |  |
| B20 |  |  |  | Kd [2]: 0.41 nM; koff [2]: 0.000151 s⁻¹; kon [2]: 369000 M⁻¹ s⁻¹ |
| B21 | 0.24 | 8e-05 | 330000 |  |
| B22 |  |  |  | Kd [3]: 0.579 nM; koff [3]: 0.000139 s⁻¹; kon [3]: 241000 M⁻¹ s⁻¹ |
| B23 |  |  |  | Kd (human PD-1 [4]): 0.253 nM; koff (human PD-1 [4]): 8.4e-05 s⁻¹; kon (human PD-1 [4]): 332000 M⁻¹ s⁻¹ |
| B24 | 0.34 | 0.00013 | 370000 |  |
| B25 | 0.28 | 9.4e-05 | 330000 |  |

— patent US20190330346A1 (REMD BIOTHERAPEUTICS, published 2019)
